Results from the RNAGym collection of RNA variant scans (doi:10.1073/pnas.2313332121).
Variants at the floor of the assay were thinned out.

B1: TPR 5TU (parent)
chain: GGAUCUUCUCGAUCUAACAAAAAAGACAAAUCUGCCACAAAGCUUGAGAGCAUCUUCGGAUGCAGAGGCGGCAGCCUUCGGUGGCGCGAUAGCGCCAACGUUCUCAACUAUGACACGCAAAACGCGUGCUCCGUUGAAUGGAGUUUAUCAUG

Variants of: B1
Assay: polymerase ribozyme fitness, log enrichment relative to wild type (log ratio); higher = more active; in vitro selection for triplet polymerase activity
Outline: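 Input and output libraries were sequenced on Illumina after a single in vitro selection round, run in triplicate on PCR-built, transcribed mutant libraries of each subunit of a heterodimeric triplet polymerase ribozyme. Selection annealed libraries to a biotinylated primer, the partner subunit and triplets, incubated them frozen at −7 °C, then gel-excised extended constructs for streptavidin-bead capture and RT-PCR. Genotypes with ≥10 input reads and ≥1 read per output were kept. Fitness is the logarithm, taken in base 2, of genotype enrichment divided by wild-type enrichment, using inverse-variance-weighted replicate averages.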

| Variant | polymerase ribozyme fitness (log ratio) |
| --- | --- |
| A29G G50A G80U A91C U134A U146C | ≤ -4.2 |
| A30C C54U C96G G141A | ≤ -4.2 |
| A30U C54A C76A C87G G92A G143C | ≤ -4.2 |
| A29U G68A | ≤ -4.2 |
| A29U G50A C116U C129G | ≤ -4.2 |
| A29U C69A G84A G141A | ≤ -4.2 |
| A29G A30C G86U A137U | ≤ -4.2 |
| A29C G62U G80C C118A | ≤ -4.2 |
| A30G C87U A110U C131A G136U G141U | ≤ -4.2 |
| A30U C35U G141U | ≤ -4.2 |
| A30G C38U A73U U78G C87G C105G | ≤ -4.2 |
| A29G A30U C85A A107U C118G | ≤ -4.2 |
| A29U G59C U82A C93U | ≤ -4.2 |
| A30G A91G | ≤ -4.2 |
| A30G U56A C85G C132U | ≤ -4.2 |
| A29U C96U | -3.19 |
| A30U A52G G58A G70U C79U G83A C93U | ≤ -4.2 |
| A30U G83U G88A U109C C125U G133C | ≤ -4.2 |
| A30C U53A G84A | ≤ -4.2 |
| A29G C76U G92A C123G G143U | ≤ -4.2 |
| A29G A37U A47U U55A G84U A89G A120C G140C U144G | ≤ -4.2 |

| Variant | polymerase ribozyme fitness (log ratio) |
| --- | --- |
| A29G A49C G67A C114U U127G | ≤ -4.2 |
| A30U A73G | -3.78 |
| A29U G59C G62U C95U C116A | ≤ -4.2 |
| A30C C96A U135A A137U | ≤ -4.2 |
| A29U A41C A52C C87U U102C G136A G143C U146A | ≤ -4.2 |
| A30C C57U G59C U82A G117A A138C | ≤ -4.2 |
| A29C U33G A40U G80U G94U U102C G143A U151A | -3.89 |
| A30G C43G G83A | ≤ -4.2 |
| A29U A41U U53G G88U A89G G117A | ≤ -4.2 |
| A30U A37U U53A C87U | ≤ -4.2 |
| A29C C57A G68A G88C C114U G117C A122G | ≤ -4.2 |
| A30U A40G G50C G67A C76A C85U A89C C132U | ≤ -4.2 |
| A30G G42A | ≤ -4.2 |
| A30U C32G C54A C57G C99U A107G | ≤ -4.2 |
| A29G G34A A49U G59U C76U C108A A119G | ≤ -4.2 |
| A30G U44C G88C C105A | ≤ -4.2 |
| A29U A41U C69U C95A C118G C125U U148A | ≤ -4.2 |
| A30U A47C G50A C54G G92C C123G | ≤ -4.2 |
| A30G G42U A113U C114U C125U | ≤ -4.2 |
| A29G G94U A97G C149U | ≤ -4.2 |
| A29U U44A G58C U61A G71U U77A U82G G140C | ≤ -4.2 |

| Variant | polymerase ribozyme fitness (log ratio) |
| --- | --- |
| A29C U31G C87A U139G | ≤ -4.2 |
| A29U C32U G62A G67U C75G U82G A142U A150G | -3.64 |
| A29C G65A C108U C116G C125A U146G A150G | ≤ -4.2 |
| A30U C54U C85U | -3.87 |
| A29U U53G G81A G88C | ≤ -4.2 |
| A29U U44A A49C C57U G88U | ≤ -4.2 |
| A29G C51G U56A C93A C95G C149G G152A | ≤ -4.2 |
| A30U C85U A97U G128A G140C C149U | ≤ -4.2 |
| A30G C76U C96U | ≤ -4.2 |
| A30C C93A A97G | ≤ -4.2 |
| A29G G42A G81A C85U | -4.09 |
| A30U G42A U55G C69A G126U A142C | ≤ -4.2 |
| A30G A47C G48A | ≤ -4.2 |
| A30U C43G | ≤ -4.2 |
| A29U G58C G84A C105U A113C | ≤ -4.2 |
| A30G C57U C63U G68C C95U A120C C125G | ≤ -4.2 |
| A29G G86U G143A | ≤ -4.2 |
| A30G G50C C51A G84A C87G G100U A121G | ≤ -4.2 |
| A29C G74C | ≤ -4.2 |
| A29G | -1.81 |
| A29U | -3.4 |

| Variant | polymerase ribozyme fitness (log ratio) |
| --- | --- |
| A30U A60C G62A C76A C96G U127G G143C | ≤ -4.2 |
| A29G A41C A60U C85G G86U C116G G133C A142G A150G | ≤ -4.2 |
| A29G G48A C75U | ≤ -4.2 |
| A30G C54U C76G A91C | ≤ -4.2 |
| A29G C93G A115U C116G C149G | ≤ -4.2 |
| A30C C75G C103G | ≤ -4.2 |
| A30G A91U A137G G141U | ≤ -4.2 |
| A29G C43U A66C C96U C103A | ≤ -4.2 |
| A30U A106G | -2.9 |
| A29G C76G C93U | ≤ -4.2 |
| A30C G59C A60C C93A C99U C114A | ≤ -4.2 |
| A29U G34C G48C G80A U82A C105A A115G U151A | ≤ -4.2 |
| A30G C87U U101A U109C A115U A120U A122U U145G G152A | ≤ -4.2 |
| A30G A64G G136C | -4.07 |
| A30G G71A C85G G141C | ≤ -4.2 |
| A30G U45A U78C G80C A89C G94U | ≤ -4.2 |
| A30U G68U A73U G140U | ≤ -4.2 |
| A29U G92A A142C | ≤ -4.2 |
| A29G A30C G59C U90G C95G G133U | ≤ -4.2 |
| A29G U55A C95U U101C U109A G133A | ≤ -4.2 |
